From the RNAGym collection of RNA variant scans (doi:10.7554/elife.80360)

B1: CPEB3 Ribozyme (parent)
chain: GGGGGCCACAGCAGAAGCGUUCACGUCGCGGCCCCUGUCAGAUUCUGGUGAAUCUGCGAAUUCUGCUGU

Variants of: B1
Test: self-cleavage, relative activity (ratio to wild type); higher = more cleavage; co-transcriptional

Variant	self-cleavage
GGGGGCCACAGCAGAAGCGUUCACGUCGAGGCCCCUGUCAGAUUCUGGUGAAUCUGGGAAUUCUGCUGU [C29A C57G]	0.225
GGGGGCCACAGCAGAAGCGUUCACGUCGAGGCCCCUGUCAGAUUCUGGUGAAUCUGAGAAUUCUGCUGU [C29A C57A]	0.279
GGGGGCCACAGCAGAAGCGUUCACGUCUCGGCCCCUGUCAGAUUCUGGUGAAUCUGCGAAUACUGCUGU [G28U U62A]	0.216
GGGGGCCACAGCAGAAGCGUUCACGUCUCGGCCCCUGUCAGAUUCUGGUGAAUCUGCGAAUGCUGCUGU [G28U U62G]	0.189
GGGGGCCACAGCAGAAGCGUUCACGUCGAGGCCACUGUCAGAUUCUGGUGAAUCUGCGAAUUCUGCUGU [C29A C34A]	0.334
GGGGGCCACAGCAGAAGCGUUCACGUCGAGGCCGCUGUCAGAUUCUGGUGAAUCUGCGAAUUCUGCUGU [C29A C34G]	0.22
GGGGGCCACAGCAGAAGCGUUCACGUCGAGGCCUCUGUCAGAUUCUGGUGAAUCUGCGAAUUCUGCUGU [C29A C34U]	0.702
GGGGGCCACAGCAGAAGCGUUCACGUCUCGGCCCCUGUCAGAUUCUGGUGAAUCUGCGAAUUCUGCGGU [G28U U67G]	0.203
GGGGGCCACAGCAGAAGCGUUCACGUCUCGGCCCCUGUCAGAUUCUGGUGAAUCUGCGAAUUCUGCAGU [G28U U67A]	0.168
GGGGGCCACAGCAGAAGCGUUCACGUCUCGGCCCCUGUCAGAUUCUGGUGAAUCUGCGAAUUCUGCCGU [G28U U67C]	0.224
GGGGGCCACAGCAGAAGCGUUCACGUCUCGGCCCCUGUCAGAUUCUGGUGAAACUGCGAAUUCUGCUGU [G28U U53A]	0.188
GGGGGCCACAGCAGAAGCGUUCACGUCUCGGCCCCUGUCAGAUUCUGGUGAAGCUGCGAAUUCUGCUGU [G28U U53G]	0.22
GGGGGCCACAGCAGAAGCGUUCACGUCUCGGCCCCCGUCAGAUUCUGGUGAAUCUGCGAAUUCUGCUGU [G28U U36C]	0.135
GGGGGCCACAGCAGAAGCGUUCACGUCUCGGCCCCUGUCAGAUUCUAGUGAAUCUGCGAAUUCUGCUGU [G28U G47A]	0.173
GGGGGCCACAGCAGAAGCGUUCACGUCUCGGCCCCUGUCAGAUUCUUGUGAAUCUGCGAAUUCUGCUGU [G28U G47U]	0.151
GGGGGCCACAGCAGAAGCGUUCACGUCUCGGCCCCUGUCAGAUUCUCGUGAAUCUGCGAAUUCUGCUGU [G28U G47C]	0.205
GGGGGCCACAGCAGAAGCGUUCACGUCGAGGCCCCUGUCAGAUUCUGGUGAAUCUGCGAAUUCUGCUGU [C29A]	0.777
GGGGGCCACAGCAGAAGCGUUCACGUCGAGGCCCCUGUCAGAUUCUGGUGUAUCUGCGAAUUCUGCUGU [C29A A51U]	0.646
GGGGGCCACAGCAGAAGCGUUCACGUCGAGGCCCCUGUCAGAUUCUGGUGGAUCUGCGAAUUCUGCUGU [C29A A51G]	0.706
GGGGGCCACAGCAGAAGCGUUCACGUCGAGGCCCCUGUCAGCUUCUGGUGAAUCUGCGAAUUCUGCUGU [C29A A42C]	0.409
GGGGGCCACAGCAGAAGCGUUCACGUCGAGGCCCCUGUCAGUUUCUGGUGAAUCUGCGAAUUCUGCUGU [C29A A42U]	0.517
GGGGGCCACAGCAGAAGCGUUCACGUCGAGGCCCCUGUCAGGUUCUGGUGAAUCUGCGAAUUCUGCUGU [C29A A42G]	0.533
GGGGGCCACAGCAGAAGCGUUCACGUCGAGGCCCCUGUCAGAUUCUGGUGAAUAUGCGAAUUCUGCUGU [C29A C54A]	0.312
GGGGGCCACAGCAGAAGCGUUCACGUCGAGGCCCCUGUCAGAUUCUGGUGAAUCUGCGAAUUCUGGUGU [C29A C66G]	0.365
GGGGGCCACAGCAGAAGCGUUCACGUCGAGGCCCCUGUCAGAUUCUGGUGAAUCUGCGAAUUCUGUUGU [C29A C66U]	0.664
GGGGGCCACAGCAGAAGCGUUCACGUCGAGGCCCCUGUCAGAUUCUGGUGAAUCUGCGGAUUCUGCUGU [C29A A59G]	0.715

Variant	self-cleavage
GGGGGCCACAGCAGAAGCGUUCACGUCUCGGCCCCUGUCAGAUGCUGGUGAAUCUGCGAAUUCUGCUGU [G28U U44G]	0.175
GGGGGCCACAGCAGAAGCGUUCACGUCGAGGCCCGUGUCAGAUUCUGGUGAAUCUGCGAAUUCUGCUGU [C29A C35G]	0.276
GGGGGCCACAGCAGAAGCGUUCACGUCGAGGCCCUUGUCAGAUUCUGGUGAAUCUGCGAAUUCUGCUGU [C29A C35U]	0.496
GGGGGCCACAGCAGAAGCGUUCACGUCGAGGGCCCUGUCAGAUUCUGGUGAAUCUGCGAAUUCUGCUGU [C29A C32G]	0.155
GGGGGCCACAGCAGAAGCGUUCACGUCGAGGUCCCUGUCAGAUUCUGGUGAAUCUGCGAAUUCUGCUGU [C29A C32U]	0.698
GGGGGCCACAGCAGAAGCGUUCACGUCUCGGCCCCUGUCAGAUUCUGGAGAAUCUGCGAAUUCUGCUGU [G28U U49A]	0.166
GGGGGCCACAGCAGAAGCGUUCACGUCUCGGCCCCUGUCAGAUUCUGGGGAAUCUGCGAAUUCUGCUGU [G28U U49G]	0.11
GGGGGCCACAGCAGAAGCGUUCACGUCUCGGCCCCUGUCAGAUUCUGGCGAAUCUGCGAAUUCUGCUGU [G28U U49C]	0.178
GGGGGCCACAGCAGAAGCGUUCACGUCGAGGCCCCUGUCCGAUUCUGGUGAAUCUGCGAAUUCUGCUGU [C29A A40C]	0.214
GGGGGCCACAGCAGAAGCGUUCACGUCGAGGCCCCUGUCUGAUUCUGGUGAAUCUGCGAAUUCUGCUGU [C29A A40U]	0.296
GGGGGCCACAGCAGAAGCGUUCACGUCGAGGCCCCUGUCGGAUUCUGGUGAAUCUGCGAAUUCUGCUGU [C29A A40G]	0.607
GGGGGCCACAGCAGAAGCGUUCACGUCUCGGCCCCUGUCAGAUUCUGGUGAAUCUGCGAAUUCGGCUGU [G28U U64G]	0.147
GGGGGCCACAGCAGAAGCGUUCACGUCUCGGCCCCUGUCAGAUUCUGGUGAAUCUGCGAAUUCAGCUGU [G28U U64A]	0.157
GGGGGCCACAGCAGAAGCGUUCACGUCGAUGCCCCUGUCAGAUUCUGGUGAAUCUGCGAAUUCUGCUGU [C29A G30U]	0.216
GGGGGCCACAGCAGAAGCGUUCACGUCGACGCCCCUGUCAGAUUCUGGUGAAUCUGCGAAUUCUGCUGU [C29A G30C]	0.205
GGGGGCCACAGCAGAAGCGUUCACGUCGAAGCCCCUGUCAGAUUCUGGUGAAUCUGCGAAUUCUGCUGU [C29A G30A]	0.264
GGGGGCCACAGCAGAAGCGUUCACGUCGAGACCCCUGUCAGAUUCUGGUGAAUCUGCGAAUUCUGCUGU [C29A G31A]	0.296
GGGGGCCACAGCAGAAGCGUUCACGUCGAGUCCCCUGUCAGAUUCUGGUGAAUCUGCGAAUUCUGCUGU [C29A G31U]	0.221
GGGGGCCACAGCAGAAGCGUUCACGUCGAGCCCCCUGUCAGAUUCUGGUGAAUCUGCGAAUUCUGCUGU [C29A G31C]	0.175
GGGGGCCACAGCAGAAGCGUUCACGUCUCGGCCCCUGUCAGAUUCUGGUGAAUCUGCGAAUUCUCCUGU [G28U G65C]	0.132
GGGGGCCACAGCAGAAGCGUUCACGUCUCGGCCCCUGUCAGAUUCGGGUGAAUCUGCGAAUUCUGCUGU [G28U U46G]	0.187
GGGGGCCACAGCAGAAGCGUUCACGUCUCGGCCCCUGUCAGAUUCAGGUGAAUCUGCGAAUUCUGCUGU [G28U U46A]	0.163
GGGGGCCACAGCAGAAGCGUUCACGUCUCGGCCCCUGUCAGAUUCCGGUGAAUCUGCGAAUUCUGCUGU [G28U U46C]	0.19
GGGGGCCACAGCAGAAGCGUUCACGUCUCGGCCCCUGUCAGAUUCUGGUGAAUCAGCGAAUUCUGCUGU [G28U U55A]	0.203
GGGGGCCACAGCAGAAGCGUUCACGUCUCGGCCCCUGUCAGAUUCUGGUGAAUCCGCGAAUUCUGCUGU [G28U U55C]	0.154
GGGGGCCACAGCAGAAGCGUUCACGUCGAGGCACCUGUCAGAUUCUGGUGAAUCUGCGAAUUCUGCUGU [C29A C33A]	0.373

Variant	self-cleavage
GGGGGCCACAGCAGAAGCGUUCACGUCGAGGCCCCUCUCAGAUUCUGGUGAAUCUGCGAAUUCUGCUGU [C29A G37C]	0.186
GGGGGCCACAGCAGAAGCGUUCACGUCGAGGCCCCUUUCAGAUUCUGGUGAAUCUGCGAAUUCUGCUGU [C29A G37U]	0.147
GGGGGCCACAGCAGAAGCGUUCACGUCGAGGCCCCUGUCAGAUUUUGGUGAAUCUGCGAAUUCUGCUGU [C29A C45U]	0.731
GGGGGCCACAGCAGAAGCGUUCACGUCUCGGCCCCUGUCAGAUUCUGGUGAAUCUGCGAACUCUGCUGU [G28U U61C]	0.11
GGGGGCCACAGCAGAAGCGUUCACGUCUCGGCCCCUGUCAGAUUCUGGUGAAUCUGCGAAGUCUGCUGU [G28U U61G]	0.221
GGGGGCCACAGCAGAAGCGUUCACGUCUCGGCCCCUGUCAGAUUCUGAUGAAUCUGCGAAUUCUGCUGU [G28U G48A]	0.255
GGGGGCCACAGCAGAAGCGUUCACGUCGAGGCCCCUGUGAGAUUCUGGUGAAUCUGCGAAUUCUGCUGU [C29A C39G]	0.431
GGGGGCCACAGCAGAAGCGUUCACGUCGAGGCCCCUGUUAGAUUCUGGUGAAUCUGCGAAUUCUGCUGU [C29A C39U]	0.372
GGGGGCCACAGCAGAAGCGUUCACGUCGAGGCCCCUGUCAGAUUCUGGUGAGUCUGCGAAUUCUGCUGU [C29A A52G]	0.77
GGGGGCCACAGCAGAAGCGUUCACGUCGAGGCCCCUGUCAGAUUCUGGUGACUCUGCGAAUUCUGCUGU [C29A A52C]	0.64
GGGGGCCACAGCAGAAGCGUUCACGUCGAGGCCCCUGUCAGAUUCUGGUGAUUCUGCGAAUUCUGCUGU [C29A A52U]	0.671
GGGGGCCACAGCAGAAGCGUUCACGUCGAGGCCCCUGUCAGAUUCUGGUGAAUCUGCGAAUUGUGCUGU [C29A C63G]	0.286
GGGGGCCACAGCAGAAGCGUUCACGUCGAGGCCCCUGUCAGAUUCUGGUGAAUCUGCGAAUUAUGCUGU [C29A C63A]	0.355
GGGGGCCACAGCAGAAGCGUUCACGUCUCGGCCCCUGUCAGACUCUGGUGAAUCUGCGAAUUCUGCUGU [G28U U43C]	0.176
GGGGGCCACAGCAGAAGCGUUCACGUCUCGGCCCCUGACAGAUUCUGGUGAAUCUGCGAAUUCUGCUGU [G28U U38A]	0.164
GGGGGCCACAGCAGAAGCGUUCACGUCUCGGCCCCUGGCAGAUUCUGGUGAAUCUGCGAAUUCUGCUGU [G28U U38G]	0.161
GGGGGCCACAGCAGAAGCGUUCACGUCUCGGCCCCUGCCAGAUUCUGGUGAAUCUGCGAAUUCUGCUGU [G28U U38C]	0.136
GGGGGCCACAGCAGAAGCGUUCACGUCUCGGCCCCUGUCAGAUUCUGGUGAAUCUGCGAAUUCUGCUCU [G28U G68C]	0.243
GGGGGCCACAGCAGAAGCGUUCACGUCUCGGCCCCUGUCAGAUUCUGGUGAAUCUGCGAAUUCUGCUGG [G28U U69G]	0.254
GGGGGCCACAGCAGAAGCGUUCACGUCUCGGCCCCUGUCAUAUUCUGGUGAAUCUGCGAAUUCUGCUGU [G28U G41U]	0.155
GGGGGCCACAGCAGAAGCGUUCACGUCUCGGCCCCUGUCACAUUCUGGUGAAUCUGCGAAUUCUGCUGU [G28U G41C]	0.163
GGGGGCCACAGCAGAAGCGUUCACGUCUCGGCCCCUGUCAGAUUCUGGUCAAUCUGCGAAUUCUGCUGU [G28U G50C]	0.183
GGGGGCCACAGCAGAAGCGUUCACGUCUCGGCCCCUGUCAGAUUCUGGUAAAUCUGCGAAUUCUGCUGU [G28U G50A]	0.237
GGGGGCCACAGCAGAAGCGUUCACGUCUCGGCCCCUGUCAGAUUCUGGUGAAUCUGCAAAUUCUGCUGU [G28U G58A]	0.185
GGGGGCCACAGCAGAAGCGUUCACGUCUCGGCCCCUGUCAGAUUCUGGUGAAUCUGCCAAUUCUGCUGU [G28U G58C]	0.177
GGGGGCCACAGCAGAAGCGUUCACGUCGAGGCCCCUGUCAGAUUCUGGUGAAUCUGCGAUUUCUGCUGU [C29A A60U]	0.257
